The source of these data is article PMC11927390.

Assay [1] has as its target FcγRIIIa on the effector cells of the Promega ADCC Reporter Bioassay (human) (UniProt P08637).
Assay [2] addresses recombinant soluble ULBP6-02 (human) (UniProt Q5VY80).
The target in assay [3] is human FcγRI, biotinylated (human) (UniProt P12314). As to the kind of experiment: SPR; Biacore, 37°C; biotinylated FcγRs captured on Series S Sensor Chip CAP; threefold serial dilutions of the anti-ULBP6/2/5 antibodies injected at 30 μL/minute; HBS-P.
Sequence of human FcγRI, biotinylated (human) (P12314 16-374): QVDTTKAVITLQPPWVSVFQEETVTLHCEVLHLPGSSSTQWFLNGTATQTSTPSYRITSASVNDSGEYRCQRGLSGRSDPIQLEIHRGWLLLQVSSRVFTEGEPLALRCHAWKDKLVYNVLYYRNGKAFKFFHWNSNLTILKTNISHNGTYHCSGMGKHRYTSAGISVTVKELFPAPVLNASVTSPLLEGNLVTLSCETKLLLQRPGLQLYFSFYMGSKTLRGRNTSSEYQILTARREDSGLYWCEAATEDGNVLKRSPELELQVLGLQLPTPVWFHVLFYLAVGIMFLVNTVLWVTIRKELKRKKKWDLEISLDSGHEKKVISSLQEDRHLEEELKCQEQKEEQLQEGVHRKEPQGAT
For assay [4], the target named is human FcγRIIIa-F176, biotinylated (human) (UniProt P08637). Described as above.
Sequence of human FcγRIIIa-F176, biotinylated (human) (P08637 17-254): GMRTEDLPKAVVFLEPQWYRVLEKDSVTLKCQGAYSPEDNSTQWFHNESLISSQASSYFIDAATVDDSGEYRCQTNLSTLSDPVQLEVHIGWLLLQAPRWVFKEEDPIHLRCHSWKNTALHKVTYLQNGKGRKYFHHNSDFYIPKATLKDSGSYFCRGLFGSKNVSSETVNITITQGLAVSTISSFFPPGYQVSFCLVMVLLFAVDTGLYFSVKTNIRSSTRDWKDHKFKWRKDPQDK
Assay [5] deals with human FcγRIIIa-V176, biotinylated (human) (UniProt P08637). The description is as above.
Sequence of human FcγRIIIa-V176, biotinylated (human) (P08637 17-254 F176V): as the sequence (P08637 17-254) above, with F160V counted along it
For assay [6], the target named is human FcγRIIa-H167, biotinylated (human) (UniProt P12318). The description is as above.
Sequence of human FcγRIIa-H167, biotinylated (human) (P12318 34-317): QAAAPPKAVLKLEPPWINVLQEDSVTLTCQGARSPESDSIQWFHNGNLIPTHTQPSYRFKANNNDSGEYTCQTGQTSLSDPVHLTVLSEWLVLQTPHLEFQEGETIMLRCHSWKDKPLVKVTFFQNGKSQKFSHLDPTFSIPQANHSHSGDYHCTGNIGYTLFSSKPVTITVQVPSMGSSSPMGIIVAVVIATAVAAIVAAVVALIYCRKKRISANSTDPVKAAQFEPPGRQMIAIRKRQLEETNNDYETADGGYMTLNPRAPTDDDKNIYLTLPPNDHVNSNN
The target of assay [7] is human FcγRIIa-R167, biotinylated (human) (UniProt P12318). The assay is described as above.
Sequence of human FcγRIIa-R167, biotinylated (human) (P12318 34-317 H167R): as the sequence (P12318 34-317) above, with H134R counted along it
Assay [8] has as its target human FcγRIIb, biotinylated (human) (UniProt P31994). The assay is described as above.
For assay [9], the target named is recombinant soluble ULBP6-02 (human) (UniProt Q5VY80). This is another data set of the same source.
The target in the next assay is human NKG2D Fc (human) (UniProt P26718). The experiment in a line: SPR; Biacore 8K or 8K+, 37°C; NKG2D Fc captured (Protein A chip as told for human NKG2D-Fc), ULBP6 as analyte in HBS-P (0.01 mol/L HEPES pH 7.4, 0.15 mol/L NaCl, 0.005% P20); kinetic or steady-state fit not given. For orientation: In SPR one partner is held on a chip, and binding of the other changes the refractive index at the surface.
Sequence of human NKG2D Fc (human) (P26718 73-216): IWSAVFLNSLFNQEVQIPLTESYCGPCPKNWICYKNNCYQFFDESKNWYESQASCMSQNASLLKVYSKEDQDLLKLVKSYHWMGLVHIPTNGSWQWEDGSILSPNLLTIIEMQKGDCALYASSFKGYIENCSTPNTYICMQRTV

Another assay deals with murine NKG2D Fc (murine) (UniProt O54709). Described as above.
Sequence of murine NKG2D Fc (murine) (O54709 90-232): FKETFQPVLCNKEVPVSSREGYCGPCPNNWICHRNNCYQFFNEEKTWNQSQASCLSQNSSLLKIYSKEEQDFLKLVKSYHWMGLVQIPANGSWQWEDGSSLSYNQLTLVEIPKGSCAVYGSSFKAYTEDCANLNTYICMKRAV

Sequence of FcγRIIIa on the effector cells of the Promega ADCC Reporter Bioassay (human) (P08637 17-254): as the sequence (P08637 17-254) above
Sequence of human FcγRIIb, biotinylated (human) (P31994 43-310): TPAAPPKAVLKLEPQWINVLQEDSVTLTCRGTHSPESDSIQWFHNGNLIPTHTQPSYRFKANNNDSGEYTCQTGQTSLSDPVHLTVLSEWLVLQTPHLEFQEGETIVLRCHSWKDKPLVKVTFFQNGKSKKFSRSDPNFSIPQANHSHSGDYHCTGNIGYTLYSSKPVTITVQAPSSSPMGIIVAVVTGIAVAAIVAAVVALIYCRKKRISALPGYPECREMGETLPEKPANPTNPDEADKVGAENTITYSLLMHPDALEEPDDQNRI

A word on the Kd: it is the free concentration of one partner at which half of the binding sites on the other are occupied at equilibrium, for simple one-to-one binding. Read a low Kd as higher affinity. In [1], “23ME-01473, humanized Fc effector-enhanced (afucosylated) anti-ULBP6/2/5 antibody” registered an EC50 of FcγRIIIa activation (RLU), Promega ADCC reporter assay with luciferase effector cells and COV644 target cells, 0.0001 to 10 nmol/L antibody of 0.0532 nM. In addition, the IC50 (so in the source) of IFNγ secretion by IL-2/IL-15-primed PBMCs cocultured with COV644 cells and 50 nmol/L sULBP6-02, 0.05-200 nmol/L 23ME-01473, donor d1213; pair blocked: sULBP6-02 and NKG2D in assay [2] was 21.5 nM. In assay [2], the IC50 (so in the source) of IFNγ secretion by IL-2/IL-15-primed PBMCs cocultured with COV644 cells and 50 nmol/L sULBP6-02, 0.05-200 nmol/L 23ME-01473, donor d1802; pair blocked: sULBP6-02 and NKG2D was 25.5 nM. Also, the IC50 (so in the source) of IFNγ secretion by IL-2/IL-15-primed PBMCs cocultured with COV644 cells and 50 nmol/L sULBP6-02, 0.05-200 nmol/L 23ME-01473, donor d3761; pair blocked: sULBP6-02 and NKG2D in [2] worked out at 13.6 nM. Moreover, in assay [2], the IC50 (so in the source) of IFNγ secretion by IL-2/IL-15-primed PBMCs cocultured with COV644 cells and 50 nmol/L sULBP6-02, 0.05-200 nmol/L 23ME-01473, donor d33936; pair blocked: sULBP6-02 and NKG2D turned out to be 25.6 nM. The Kd in assay [3] amounted to 0.92 nM; in [4] it was 25.5 nM; in assay [5], 6.74 nM; in assay [6], 270 nM; in [7] it was 406 nM; in assay [8], 2230 nM.
In the case of “Fc-Att-anti-ULBP6/2/5, effector-attenuated (N297G) version of 23ME-01473 (antibody)”, in [9], the IC50 (so in the source) of the rescue of IFNγ production by PBMCs cocultured with COV644 cells in the presence of sULBP6, donor d1212; pair blocked: sULBP6-02 and NKG2D amounted to 26 nM; the IC50 (so in the source) of the rescue of IFNγ production by PBMCs cocultured with COV644 cells in the presence of sULBP6, donor d1939; pair blocked: sULBP6-02 and NKG2D stood at 10.6 nM; the IC50 (so in the source) of the rescue of IFNγ production by PBMCs cocultured with COV644 cells in the presence of sULBP6, donor d33936; pair blocked: sULBP6-02 and NKG2D amounted to 16.5 nM.
As to “human ULBP6 (analyte of Supplementary Table S6) (from UniProt Q5VY80 26-218) (ligand)”, the Kd was 0.8 nM with human NKG2D Fc (human) and 0.64 nM with murine NKG2D Fc (murine).
